Nine molecules from patent US20240317840A1 (Novartis, published 2024) can be followed below.

Test [1] has as its target HBsAg of HBV genotype D, serotype ayw (Hepatitis B virus). Nature of the test: cell-based or functional assay.
Test [2] concerns the target HBsAg clinical mutation T126S (Hepatitis B virus). In words: sandwich ELISA, mutant HBsAg from cell supernatant captured on horse polyclonal anti-HBsAg, antibody titrated, absorbance 450 nm.
The target in test [3] is HBsAg clinical mutation M133L (Hepatitis B virus). The test is described as above.
Test [4] addresses T1, HBsAg AY serotype (Hepatitis B virus).
T1 construct: also called HBsAg serotype AY
Nature of the test: SPR Biacore T200, HBsAg particles immobilized, antibody as analyte, 1:1 fit.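 Further: Anti-HBsAg antibodies assessed for binding against both major HBsAg serotypes, AY and AD.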
Procedure: (§1) Binding affinity interaction (KD) of the anti-HBsAg antibodies with the two major serotypes of HBsAg, AY and AD, was determined utilizing surface plasma resonance (SPR) technology.

Test [5] deals with T2, HBsAg AD serotype (Hepatitis B virus).
T2 construct: also called HBsAg serotype AD
The test is described as above.
Procedure: as §1

Test [6] addresses HBsAg clinical mutation T126S (Hepatitis B virus). In words: sandwich ELISA, captured mutant HBsAg from culture supernatant.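 Further: Anti-HBsAg antibodies tested for binding to mutant HBsAg secreted by stably transfected cell lines, supernatant incubated 1 h on antibody-coated plates.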
Procedure: (§2) The binding of anti-HBsAg antibodies to 4 well characterized vaccine and/or HBsAg clinical mutations of HBsAg (G145R, D144A, T126S, M133L) were analyzed by sandwich ELISA. […] Supernatant collected from HBsAg cell-culture derived clinical mutation stables (G145R, D144A, T126S, M133L) was allowed to bind antibody coated plates for 1 hour.
Test [7] concerns the target HBsAg clinical mutation D144A (Hepatitis B virus). Described as above.
Procedure: as §2
The target of test [8] is HBsAg clinical mutation M133L (Hepatitis B virus). Described as above.
Procedure: as §2
Test [9] addresses HBsAg clinical mutation G145R (Hepatitis B virus). The test is described as above.
Procedure: as §2
In test [10] the target is T3, HBsAg of HBV genotype A (AY934772) (Hepatitis B virus).
T3 construct: captured from supernatant by horse polyclonal anti-HBsAg
In words: sandwich ELISA, captured HBsAg from culture supernatant.
Procedure: (§3) The binding of anti-HBsAg antibodies to the 4 major genotypes (A-D) of HBV were analyzed by sandwich ELISA.

Test [11] concerns the target HBsAg of HBV genotype C (DQ087960) (Hepatitis B virus). Described as above.
Procedure: as §3
For test [12], the target named is HBsAg of HBV genotype B (AF 121245) (Hepatitis B virus). The description is as above.
Procedure: as §3
Test [13] has as its target T1, HBsAg AY serotype. Nature of the test: SPR epitope binning; competitor (1st, saturating Ab): CR8087.
Procedure: (§4) Epitope binning of anti-HBsAg antibodies with the two major serotypes of HBsAg, AY and AD, was performed utilizing surface plasmon resonance (SPR) technology. […] Each pair of antibodies was tested for blocking one another's binding to their epitope on the antigen by subsequently applying one antibody as first (saturating) followed by the other as second (competing) antibody and vice versa. Saturating antibodies were applied at 500 nM for 120s. Competing antibodies utilized the same conditions but were supplemented with the first antibody at 500 nM to maintain saturation. Binding signals were corrected by subtracting the reference cell signal. Specific binding of the competing antibody in presence of the saturating antibody was calculated by subtracting a saturating antibody plus buffer reference signal. All signals were normalized to 100 RU of immobilized ligand. The specific binding signal obtained from the application as competing antibody was expressed as percentage of the binding signal obtained from the application of the same antibody as saturating (first) antibody, the signal of which was regarded 100% binding.
The target of test [14] is T2, HBsAg AD serotype. The test is described as above.
Procedure: as §4
The target in test [15] is HBsAg clinical mutation T126S (Hepatitis B virus). Nature of the test: sandwich ELISA, mutant HBsAg from cell supernatant captured on horse polyclonal anti-HBsAg, antibody titrated, absorbance 450 nm. This is another data set of the same source.
The target of test [16] is HBsAg clinical mutation M133L (Hepatitis B virus). The test is described as above. The source holds these as a separate data set.
In test [17] the target is T1, HBsAg AY serotype. Nature of the test: SPR epitope binning; competitor (1st, saturating Ab): HBC34.
Procedure: as §4
In test [18] the target is T2, HBsAg AD serotype. Described as above.
Procedure: as §4
Test [19] deals with HBsAg clinical mutation T126S (Hepatitis B virus). Nature of the test: sandwich ELISA, mutant HBsAg from cell supernatant captured on horse polyclonal anti-HBsAg, antibody titrated, absorbance 450 nm. This is another data set of the same source.
Test [20] addresses HBsAg clinical mutation M133L (Hepatitis B virus). Described as above. The source holds these as a separate data set.
For test [21], the target named is HBsAg clinical mutation T126S (Hepatitis B virus). The description is as above. This is another data set of the same source.
Test [22] concerns the target HBsAg clinical mutation D144A (Hepatitis B virus). The test is described as above.
Test [23] addresses HBsAg clinical mutation M133L (Hepatitis B virus). Described as above. This is another data set of the same source.
Test [24] concerns the target HBsAg clinical mutation G145R (Hepatitis B virus). The test is described as above.
Test [25] addresses HBsAg clinical mutation T126S (Hepatitis B virus). The test is described as above. The source holds these as a separate data set.
Test [26] deals with HBsAg clinical mutation M133L (Hepatitis B virus). The description is as above. The source holds these as a separate data set.
Test [27] deals with HBsAg clinical mutation T126S (Hepatitis B virus). The test is described as above. The source holds these as a separate data set.
Test [28] deals with HBsAg clinical mutation D144A (Hepatitis B virus). The description is as above. The source holds these as a separate data set.

Where a chain is given by its changes, count along the chain named. Read-outs that look alike come from different tables or passages of the source.

B1: NOV3831 (antibody, human IgG1, lambda, V domains shown)
VH: EMQVLESGGGLVQPGGSLRLSCAASGFTFNNYAMSWVRQVPGKGLEWVSSISGSGGSTYYADSVKGQFTISRDNSKNTLYLQMNSLRAEDTAVYYCAKSSILSGGHARVYGIDVWGQGTTVTVSS
VL: QSALTQPPSVSVAPGQTARITCGGNNIGSQSVHWYQQKPGQAPILVVYDDTDRPSGIPARFSGSSSGSTATLTIGRVEAGDEADYYCQVWDSSSDHVVFGGGTKLTVLS
notes: Full human IgG1 (lambda) expressed in CHO cells
With B1, the “Virus neutralization EC50” value in test [1] came out at 0.026 nM. Also, the half-maximal effective concentration (EC50 (read off the curve)) in test [2] and in [3] was ~0.02 nM each time. Besides, the Kd in test [4] is 0.59 nM; in test [5], 0.67 nM. The IC50 in test [6] is 0.0093 nM; in test [7], 3.6 nM; in [8] it was 0.0058 nM; in test [9] it was > 67 nM; in [10], 0.69 nM; in test [11], 0.031 nM. The molecule also gave an IC50 in test [12] of 0.015 nM.

B2: NOV3832 (antibody, human IgG1, lambda, V domains shown)
VH: B1 VH with N30D
VL: B1 VL
notes: as for B1
Consider B2, for which the “Virus neutralization EC50” value in [1] is 0.26 nM. In addition, the Kd in test [4] was found to be 0.4 nM; in test [5] it was 0.22 nM. Also, the half-maximal inhibitory concentration (IC50) in test [6] was 0.034 nM; in [7], 0.99 nM; in [8] it was 0.034 nM; in test [9], > 67 nM; in [10], 0.05 nM; in [11], 0.015 nM. The molecule also displayed a half-inhibitory concentration (IC50) in [12] of 0.02 nM. For the same molecule, the “binding of second antibody” value is 117 % of its binding as first antibody in [13], 223 % of its binding as first antibody in [14], 113 % of its binding as first antibody in [17] and 176 % of its binding as first antibody in test [18]. For the same molecule, the 50% effective concentration (EC50 (read off the curve)) in test [15] and in [16] was ~0.05 nM each time.

B3: NOV3357 (antibody, human IgG1, kappa, V domains shown)
VH: EVQLLESGGGLVQPGGSLRLSCAASGFTFSPHAMSWVRQAPGKGLEWVSAISDSGGSTHYADSVKGRFTISRDNSKNTLYLQMNSLRAEDTAVYYCARDDDGWSGYDYWFDYWGQGTLVTVSS
VL: DIQMTQSPSSLSASVGDRVTITCRASQSISPYLNWYQQKPGKAPKLLIYAADSLQSGVPSRFSGSGSGTDFTLTISSLQPEDFATYYCQQSYKIPLTFGQGTKVEIKR
notes: Full human IgG1 (kappa) expressed in CHO cells
Consider B3, for which the “EC50 (read off the curve)” value in [19] and in test [20] was ~0.1 nM in each case. Also, in [1], the “Virus neutralization EC50” value was determined as 0.056 nM. Moreover, the equilibrium dissociation constant (Kd) came to 0.11 nM in [4] and 0.18 nM in [5]. Moreover, the IC50 turned out to be 0.22 nM in test [6]; 2.1 nM in test [7]; 0.67 nM in [8]; 5.5 nM in test [9]; 0.03 nM in [10]; 0.016 nM in test [11]. In addition, the 50% inhibitory concentration (IC50) in [12] stood at 0.017 nM.

B4: NOV3540 (antibody, human IgG1, kappa, V domains shown)
VH: B3 VH with G102A
VL: B3 VL
notes: as for B3
Consider B4, for which the “Virus neutralization EC50” value in [1] is 0.085 nM. Besides, the 50% effective concentration (EC50 (read off the curve)) is ~0.08 nM in [21], ~0.2 nM in test [22], ~0.08 nM in [23] and ~0.3 nM in [24]. The values for the Kd in test [4] and in [5] were 0.25 nM and 0.39 nM, respectively. The IC50 came to 0.063 nM in test [6]; 0.16 nM in test [7]; 0.091 nM in [8]; 0.25 nM in test [9]; 0.1 nM in test [10]; 0.1 nM in test [11]. The IC50 in test [12] was 0.059 nM. For the same molecule, the “binding of second antibody” value in test [13] is 118 % of its binding as first antibody; in [14], 254 % of its binding as first antibody; in test [17], 102 % of its binding as first antibody; in test [18], 111 % of its binding as first antibody.

B5: NOV3836 (antibody, human IgG1, kappa, V domains shown)
VH: QVQLVESGGGVVQPGRSLRLSCAASGFTFERYGMHWVRQAPGKGLEWVAGIWHEGSHKYYADSLRGRFTISRDNAKNTLDLQLNRLRAEDTSVYYCVRQTNRGRLDDAFDIWGQGTMVTVSS
VL: DIQMTQSPSSLSAAVGDRVTISCRASQTISSYLNWYQQKPGEAPKLLIYAASTLQSGVPSRFGGSGSGTDFTLTISSLQPEDSATYYCQQNYDTLWTFGQGTKVEIKR
Turning to B5, the “Virus neutralization EC50” value in test [1] came to 0.017 nM.

B6: NOV3835 (antibody, human IgG1, kappa, V domains shown)
VH: B5 VH with E30D
VL: B5 VL
B6: the “Virus neutralization EC50” value in test [1] is 0.72 nM.

B7: NOV3834 (antibody, human IgG1, kappa, V domains shown)
VH: B5 VH with E30N, E54D
VL: B5 VL
notes: as for B3
In the case of B7, in test [1], the “Virus neutralization EC50” value was 0.24 nM. For the same molecule, the dissociation constant (Kd) in [4] was determined as 5.3 nM; in [5] it was 40 nM. In addition, the IC50 in test [6] is 7.4 nM; in [8] it was 9.2 nM; in test [10] it was 2 nM; in test [11], 16 nM; in test [12], 1.2 nM.

B8: NOV2603 (antibody, human IgG1, kappa, V domains shown)
VH: QVQLVQSGAEVKKPGASVKVSCKASGYTFTSYYMHWVRQAPGQGLEWMGIISPSGGSTSYAQKFQGRVTMTRDTSTSTVYMELSSLRSEDTAVYYCARDWEGGDPYGYYYAFDYWGQGTLVTVSS
VL: not shown
notes: as for B3
Take B8: in test [1], the “Virus neutralization EC50” value turned out to be 0.14 nM. The Kd in test [4] was 3.1 nM; in test [5], 15.5 nM. Besides, the 50% inhibitory concentration (IC50) came out at 0.06 nM in test [6]; 1.34 nM in [7]; 0.072 nM in [8]; 0.33 nM in test [9]; 2.3 nM in test [10]; 3.6 nM in [11]. Also, in [12], half-maximal inhibition (IC50) required 1.5 nM. The “EC50 (read off the curve)” value is ~0.06 nM in [25] and ~0.07 nM in test [26].

B9: NOV3212 (antibody, human IgG1, kappa, V domains shown)
VH: B8 VH with Y32L, Y33E, S52E
VL: not shown
notes: as for B3
Turning to B9, in test [1], the “Virus neutralization EC50” value is 0.11 nM. The Kd in test [4] turned out to be 0.6 nM; in test [5], 1.1 nM. Also, the IC50 in test [6] was determined as 0.012 nM; in [7] it was 0.079 nM; in test [8], 0.012 nM; in test [9], 0.033 nM; in [10] it was 0.23 nM; in [11] it was 0.068 nM. The IC50 in [12] is 0.045 nM. The “EC50 (read off the curve)” value in test [27] was ~0.02 nM; in [28] it was ~0.1 nM.
